Reference: patent US20230235013A1 (MABSOLVE, published 2023)
Residue numbers refer to the chain shown, from its start. Numbers in names are those of the source. One block for each binder: values may come before it.

Assays:
[1] = target: T1, C-terminus biotinylated human FcRn attached to Streptavidin-SmBiT (FcRn-SAv-SmBiT) (human, UniProt P55899 24-297; P61769 21-119, limits assumed, C-terminus biotinylated (AviTag), attached to Streptavidin-SmBiT); test: NanoBiT FcRn competition immunoassay, competitor Tracer-LgBiT human IgG, pH 6.0
T1 construct: Kit reagent; also called hFcRn-AviTag

[2] = target: T2, Human C1q (Sigma Cat. No. 20476), HRP-labelled (human, UniProt P02745 23-245; P02746 28-253; P02747 29-245); test: ELISA, antibody coated, HRP-C1q; Expt 2, buffer alone 0.051
T2 construct: Coupled to horse-radish peroxidase with Lightning-Link kit; also called HRP-labelled C1q

[3] = target: T2, Human C1q (Sigma Cat. No. 20476), …; test: ELISA, antibody coated, HRP-C1q; Expt 1, buffer alone 0.053
[4] = target: T3, human FcRn (R&D Systems Cat. No. 8639-Fc) (human, UniProt P55899 24-297; P61769 21-119); test: SPR, FcRn captured; Expt 2
[5] = target: T3, human FcRn (R&D Systems Cat. No. …); test: SPR, FcRn captured; Expt 3
[6] = target: T3, human FcRn (R&D Systems Cat. No. …); test: SPR, FcRn captured; Mean
[7] = target: T2, Human C1q (Sigma Cat. No. 20476), …; test: ELISA, antibody coated, HRP-C1q; Expt 2, buffer alone 0.091
[8] = target: T3, human FcRn (R&D Systems Cat. No. …); test: SPR, FcRn captured; Expt 1
[9] = target: T2, Human C1q (Sigma Cat. No. 20476), …; test: ELISA, antibody coated, HRP-C1q; Expt 1, buffer alone 0.061
[10] = target: T3, human FcRn (R&D Systems Cat. No. …); test: SPR, FcRn captured via anti-His, pH 6.0;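 further: SPR binding signal relative to the reference cell, corrected by subtracting the response of a blank sample of running buffer alone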
[11] = target: T4, mouse FcRn (Sino Biological Cat. No. CT029-M08H) (mouse, UniProt Q61559 22-297; P01887 21-119); test: SPR, FcRn captured via anti-His, pH 6.0;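 further: SPR binding signal relative to the reference cell, corrected by subtracting the response of a blank sample of running buffer alone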
T4 construct: Bought protein, captured on an anti-histidine chip
T4 sequence (looked up): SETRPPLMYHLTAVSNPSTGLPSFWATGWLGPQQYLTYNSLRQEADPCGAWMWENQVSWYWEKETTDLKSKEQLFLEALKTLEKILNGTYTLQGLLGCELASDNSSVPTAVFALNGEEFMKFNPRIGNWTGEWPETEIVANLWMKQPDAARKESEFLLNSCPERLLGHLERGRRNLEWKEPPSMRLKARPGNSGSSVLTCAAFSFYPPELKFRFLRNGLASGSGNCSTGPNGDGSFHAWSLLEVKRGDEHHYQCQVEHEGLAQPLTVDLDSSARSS
T4 sequence (b2m, looked up): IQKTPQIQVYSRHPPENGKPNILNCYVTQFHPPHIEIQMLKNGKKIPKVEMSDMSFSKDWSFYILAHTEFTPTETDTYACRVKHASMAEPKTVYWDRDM

[12] = target: T5, cynomolgus monkey FcRn (Sino Biological Cat. No. CT031-C08H) (cynomolgus monkey, UniProt Q8SPV9 24-297; Q8SPW0 21-119); test: SPR, FcRn captured via anti-His, pH 6.0;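 further: SPR binding signal relative to the reference cell, corrected by subtracting the response of a blank sample of running buffer alone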
T5 construct: Bought protein, captured on an anti-histidine chip; also called cynomolgus FcRn

Mean binding activity (% of wild-type reference) [1]: 147 % of wild-type reference | Mean Absorbance [2]: 0.048 absorbance (450 nm) | Mean Absorbance [3]: 0.051 absorbance (450 nm)
B1: anti-CD20 (rituximab variable regions) rabbit IgG L234Q/L235S/G236R (antibody)
heavy: QVQLQQPGAELVKPGASVKMSCKASGYTFTSYNMHWVKQTPGRGLEWIGAIYPGNGDTSYNQKFKGKATLTADKSSSTAYMQLSSLTSEDSAVYYCARSTYYGGDWYFNVWGAGTTVTVSSGQPKAPSVFPLAPCCGDTPSSTVTLGCLVKGYLPEPVTVTWNSGTLTNGVRTFPSVRQSSGLYSLSSVVSVTSSSQPVTCNVAHPATNTKVDKTVAPSTCSKPTCPPPEQSRGPSVFIFPPKPKDTLMISRTPEVTCVVVDVSEDDPEVQFTWYINNEQVRTARPPLREQQFNSTIRVVSTLPIAHEDWLRGKEFKCKVHNKALPAPIEKTISKARGQPLEPKVYTMGPPREELSSRSVSLTCMINGFYPSDISVEWEKNGKAEDNYKTTPAVLDSDGSYFLYSKLSVPTSEWQRGDVFTCSVMHEALHNHYTQKSISRSPGK
light: QIVLSQSPAILSASPGEKVTMTCRASSSVSYIHWFQQKPGSSPKPWIYATSNLASGVPVRFSGSGSGTSYSLTISRVEAEDAATYYCQQWTSNPPTFGGGTKLEIKRDPVAPSVLLFPPSKEELTTGTATIVCVANKFYPSDITVTWKVDGTTQQSGIENSKTPQSPEDNTYSLSSTLSLTSAQYNSHSVYTCEVVQGSASPIVQSFNRGDC
notes: also called 23.77

Corrected and normalised response (% of wild-type reference) [4]: 99 % of wild-type reference | Corrected and normalised response (% of wild-type reference) [5]: 99 % of wild-type reference | Corrected and normalised response (% of wild-type reference) [6]: 99.3 % of wild-type reference | Mean Absorbance [7]: 0.089 absorbance (450 nm) | Corrected and normalised response (% of wild-type reference) [8]: 100 % of wild-type reference
B2: anti-CD20 (rituximab) human IgG1 L234Q/G236R (antibody)
heavy: not shown
light: QIVLSQSPAILSASPGEKVTMTCRASSSVSYIHWFQQKPGSSPKPWIYATSNLASGVPVRFSGSGSGTSYSLTISRVEAEDAATYYCQQWTSNPPTFGGGTKLEIKRTVAAPSVFIFPPSDEQLKSGTASVVCLLNNFYPREAKVQWKVDNALQSGNSQESVTEQDSKDSTYSLSSTLTLSKADYEKHKVYACEVTHQGLSSPVTKSFNRGEC
notes: EU numbering; also called 2-30; copies: 2 + 2

Mean binding activity (% of wild-type reference) [1]: 143 % of wild-type reference
B3: anti-CD20 (rituximab variable regions) human IgG2 L234Q/L235S (antibody)
heavy: QVQLQQPGAELVKPGASVKMSCKASGYTFTSYNMHWVKQTPGRGLEWIGAIYPGNGDTSYNQKFKGKATLTADKSSSTAYMQLSSLTSEDSAVYYCARSTYYGGDWYFNVWGAGTTVTVSSASTKGPSVFPLAPCSRSTSESTAALGCLVKDYFPEPVTVSWNSGALTSGVHTFPAVLQSSGLYSLSSVVTVPSSNFGTQTYTCNVDHKPSNTKVDKTVERKCCVECPPCPAPPQSGPSVFLFPPKPKDTLMISRTPEVTCVVVDVSHEDPEVQFNWYVDGVEVHNAKTKPREEQFNSTFRVVSVLTVVHQDWLNGKEYKCKVSNKGLPAPIEKTISKTKGQPREPQVYTLPPSREEMTKNQVSLTCLVKGFYPSDIAVEWESNGQPENNYKTTPPMLDSDGSFFLYSKLTVDKSRWQQGNVFSCSVMHEALHNHYTQKSLSLSPGK
light: B2 light
notes: also called 11.144; copies: 2 + 2

Mean binding activity (% of wild-type reference) [1]: 114 % of wild-type reference | Mean Absorbance [2]: 0.052 absorbance (450 nm) | Mean Absorbance [3]: 0.051 absorbance (450 nm)
B4: anti-CD20 (rituximab variable regions) human IgG4 L234Q/L235S/G236R (with S228P) (antibody)
heavy: QVQLQQPGAELVKPGASVKMSCKASGYTFTSYNMHWVKQTPGRGLEWIGAIYPGNGDTSYNQKFKGKATLTADKSSSTAYMQLSSLTSEDSAVYYCARSTYYGGDWYFNVWGAGTTVTVSSASTKGPSVFPLAPCSRSTSESTAALGCLVKDYFPEPVTVSWNSGALTSGVHTFPAVLQSSGLYSLSSVVTVPSSSLGTKTYTCNVDHKPSNTKVDKRVESKYGPPCPPCPAPEQSRGPSVFLFPPKPKDTLMISRTPEVTCVVVDVSQEDPEVQFNWYVDGVEVHNAKTKPREEQFNSTYRVVSVLTVLHQDWLNGKEYKCKVSNKGLPSSIEKTISKAKGQPREPQVYTLPPSQEEMTKNQVSLTCLVKGFYPSDIAVEWESNGQPENNYKTTPPVLDSDGSFFLYSRLTVDKSRWQEGNVFSCSVMHEALHNHYTQKSLSLSLGK
light: B2 light
notes: copies: 2 + 2

Mean binding activity (% of wild-type reference) [1]: 3940 % of wild-type reference | Mean Absorbance [2]: 0.056 absorbance (450 nm) | Mean Absorbance [3]: 0.052 absorbance (450 nm)
B5: anti-CD20 (rituximab) human IgG1 L234Q/L235S/G236R/M252Y/S254T/T256E (antibody)
heavy: QVQLQQPGAELVKPGASVKMSCKASGYTFTSYNMHWVKQTPGRGLEWIGAIYPGNGDTSYNQKFKGKATLTADKSSSTAYMQLSSLTSEDSAVYYCARSTYYGGDWYFNVWGAGTTVTVSSASTKGPSVFPLAPSSKSTSGGTAALGCLVKDYFPEPVTVSWNSGALTSGVHTFPAVLQSSGLYSLSSVVTVPSSSLGTQTYICNVNHKPSNTKVDKKVEPKSCDKTHTCPPCPAPEQSRGPSVFLFPPKPKDTLYITREPEVTCVVVDVSHEDPEVKFNWYVDGVEVHNAKTKPREEQYNSTYRVVSVLTVLHQDWLNGKEYKCKVSNKALPAPIEKTISKAKGQPREPQVYTLPPSRDELTKNQVSLTCLVKGFYPSDIAVEWESNGQPENNYKTTPPVLDSDGSFFLYSKLTVDKSRWQQGNVFSCSVMHEALHNHYTQKSLSLSPGK
light: B2 light
notes: EU numbering; also called 10.145; copies: 2 + 2

Mean binding activity (% of wild-type reference) [1]: 94.1 % of wild-type reference | Mean Absorbance [9]: 0.072 absorbance (450 nm) | Mean Absorbance [7]: 0.09 absorbance (450 nm)
B6: anti-CD20 (rituximab) human IgG1 L234S/L235V/G236R (antibody)
heavy: B5 heavy with Q238S, S239V, Y256M, T258S, E260T
light: B2 light
notes: EU numbering; also called 2-53; copies: 2 + 2

Corrected response (RU) [10]: 570 RU | Corrected response (RU) [11]: 181 RU | Corrected response (RU) [12]: 1300 RU | Corrected and normalised response (% of wild-type reference) [4]: 108 % of wild-type reference | Corrected and normalised response (% of wild-type reference) [5]: 108 % of wild-type reference | Mean Absorbance [9]: 0.029 absorbance (450 nm) | Corrected and normalised response (% of wild-type reference) [6]: 108 % of wild-type reference | Corrected and normalised response (% of wild-type reference) [8]: 106 % of wild-type reference
B7: anti-CD20 (rituximab) human IgG1 L234R/L235R/G236R (antibody)
heavy: B5 heavy with Q238R, S239R, Y256M, T258S, E260T
light: B2 light
notes: EU numbering; also called 2-43; copies: 2 + 2

Mean binding activity (% of wild-type reference) [1]: 650 % of wild-type reference | Mean Absorbance [2]: 0.062 absorbance (450 nm) | Mean Absorbance [3]: 0.051 absorbance (450 nm)
B8: anti-CD20 (rituximab) human IgG1 L234Q/L235S/G236R/T250Q/M428L (antibody)
heavy: B5 heavy with T254Q, Y256M, T258S, E260T, M432L
light: B2 light
notes: EU numbering; also called 10.146; copies: 2 + 2
